Here are results for one sequence from paper PMC11208452.

pKd: −log10 of the molar value.

The target of the data set is T1, BMAL2 (recombinant human, Novus H00056938-Q01) (Homo sapiens) (UniProt Q8WYA1).
T1 sequence (Q8WYA1 whole entry, looked up): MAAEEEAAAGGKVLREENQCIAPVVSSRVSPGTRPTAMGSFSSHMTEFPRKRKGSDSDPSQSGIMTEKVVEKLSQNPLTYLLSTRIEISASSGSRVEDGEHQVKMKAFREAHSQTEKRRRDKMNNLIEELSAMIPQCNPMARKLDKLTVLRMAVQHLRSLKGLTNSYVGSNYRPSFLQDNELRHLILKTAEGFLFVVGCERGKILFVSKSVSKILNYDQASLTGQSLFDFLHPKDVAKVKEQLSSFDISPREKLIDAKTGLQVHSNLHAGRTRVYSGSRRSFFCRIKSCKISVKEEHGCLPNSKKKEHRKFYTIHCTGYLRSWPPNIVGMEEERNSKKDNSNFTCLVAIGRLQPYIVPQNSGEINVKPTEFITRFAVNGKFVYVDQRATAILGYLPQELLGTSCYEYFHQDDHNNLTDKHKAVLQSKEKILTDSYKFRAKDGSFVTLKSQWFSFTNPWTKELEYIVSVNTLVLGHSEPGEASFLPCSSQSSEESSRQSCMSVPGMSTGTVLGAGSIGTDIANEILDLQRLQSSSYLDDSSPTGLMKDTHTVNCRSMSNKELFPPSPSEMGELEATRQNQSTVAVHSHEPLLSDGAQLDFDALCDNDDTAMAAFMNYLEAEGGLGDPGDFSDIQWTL
The data set is described as follows: SPR. To be noted: BMAL2 immobilized; oligo analyte 50, 100, 200 nM; global 1:1 fit; OpenSPR (text also says BIAcore), 20 C, 30 ul/min; running buffer, salt and pH not stated (immobilization in 10 mM sodium acetate pH 5.5).

As to “GGCGCAACGCTGAGCAGCT (double strand) [human PD-L1 promoter predicted BMAL2 binding site oligo]”, the pKd was 6.68.
